# T1: ORF27 (Streptomyces aizunensis, UniProt Q52V65)
# T1 sequence (Q52V65 1-470): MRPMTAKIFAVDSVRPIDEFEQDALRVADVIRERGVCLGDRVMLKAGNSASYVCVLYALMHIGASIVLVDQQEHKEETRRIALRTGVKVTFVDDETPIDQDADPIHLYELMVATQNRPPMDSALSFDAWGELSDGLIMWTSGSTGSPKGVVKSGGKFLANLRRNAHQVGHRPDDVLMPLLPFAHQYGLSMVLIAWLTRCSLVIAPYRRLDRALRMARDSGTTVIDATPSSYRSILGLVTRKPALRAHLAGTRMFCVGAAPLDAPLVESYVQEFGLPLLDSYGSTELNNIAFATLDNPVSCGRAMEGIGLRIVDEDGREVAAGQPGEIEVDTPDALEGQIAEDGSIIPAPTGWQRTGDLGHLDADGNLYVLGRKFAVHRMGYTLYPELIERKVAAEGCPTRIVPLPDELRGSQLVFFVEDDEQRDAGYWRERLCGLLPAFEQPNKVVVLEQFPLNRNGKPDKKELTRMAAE
# What was measured:
# [1] = Solubility noted during preparation of substrate stock solution; assay type: physicochemical; conditions: under neutral pH; HCl added to obtain 100 mM stock solution in pH ~2.0
# Excerpt: (§1) The acids assayed were glutamic acid, γ-aminobutyrate (GABA), 4-guanidinobutyric acid, (S)-3-hydroxyl-butyric acid, valeric acid, 4-methyl-hexanoic acid, 3-aminobutyric acid, 6-aminocaproic acid, 6-guanidinohexanoic acid, glutaric acid, adipic acid, 2-aminobutyric acid and (Sigma-Aldrich, St. Louis, Mo.).
# ORF27 [2] = target: T1, ORF27; experiment: In vitro ORF27 lactam formation with ATP or ADP, product analysis by HPLC-MS; assay type: biochemical; conditions: ADP instead of ATP to activate ω-amino fatty acids
# Protocol: (§2) To compare formation of various lactams by ORF27, a reaction mixture containing […] of ORF27, 5 mM ω-amino fatty acids substrates, 1 mM ATP or ADP, 0.5 mM CoASH and 1 mM Mg(CI)2 in 100 mM HEPES (pH=8) was incubated at 25° C. The reactions were quenched by addition of methanol to a final concentration of 50% (v/v) at multiple time points (0 min, 15 min, 1 h, 2 h, 4 h and 19 h). The resulting quenched reactions were kept at 4° C. and filtered through 10 K Amicon Ultra-0.5 mL Centrifugal Filters (Millipore) at 8000×g for 30 min. The filtered solutions were analyzed for lactams and nucleotides using HPLC-MS. Control reactions were carried out without enzyme, without substrate, without ATP, without CoASH or without MgCl2 (supplying additional 0.2 mM EDTA to chelate Mg^2+ ions from purified protein stock). Caprolactam, valerolactam and butyrolactam, AMP, ADP and ATP were purchased as standards from Sigma-Aldrich. The pH dependence of ORF27-catalyzed butrylactam formation was determined using an end-point assay, and the amount of butyrolactam was determined using the HPLC-MS method described above.
# The ORF27-catalyzed lactam formation reaction in vitro was monitored for both nucleotide and lactam products, using either ATP or ADP as the energy source. […] In the absence of ORF27, ATP remained stable throughout the reaction (FIG. 6A). […]
# ORF27 [3] = target: T1, ORF27; experiment: ATP-PPi release assay for ORF27 (substrate range, steady state parameters); assay type: biochemical; conditions: substrates with a negatively charged group on the ω-terminal end
# Protocol: The substrate range of ORF27 was determined by ATP-PPi release assays as previously described (12). Without prior knowledge about the reaction pathways, the ATP-PPi assay served a semi-quantitative method to compare substrate induced acceleration of ATP consumption. For kinetic investigation of ORF27 activity with different substrates, the inorganic pyrophosphate released by enzymatic reaction was measured continuously using the EnzChek Pyrophosphate Assay Kit (Invitrogen). A typical assay contained in a total volume of 150 μL: 5 μM of ORF27, 0-20 mM substrates, 1 mM ATP, 1 mM CoASH and 1 mM Mg(Cl)2 in 100 mM HEPES, pH 7.5. 2-amino-6-mercapto-7-methylpurine ribonucleoside (MESG) substrate, purine nucleoside phosphorylase and inorganic pyrophosphatase were added according to the protocol. Reactions were initiated by the addition of ATP and monitored at 360 nm with SpectraMax M2 (Molecular Devices, Sunnyvale, Calif.). Initial velocities were calculated using the standard curve for inorganic pyrophosphate. For each concentration, control reactions were carried out without enzyme or without ATP. The rates of PPi release were converted to observed rates, and the Michaelis-Menten kinetic parameters were obtained. […]
# The sensitivity of the ATP-PPi release assay (5 μM Pi) allowed the initial velocity to be determined within the first 2 min of reaction incubation. […]
# [4] = pH profile of ORF27 catalyzed butyrolactam formation (end-point assay); assay type: biochemical
# Protocol: FIG. 8. pH profile of ORF27 catalyzed butyrolactam formation. A reaction mixture containing 5 μM ORF27, 1 mM GABA, 1 mM ATP, 1 mM CoASH and 1 mM Mg(Cl)2 in 100 mM HEPES (pH 7.5) was incubated at 25° C. for 30 min. The reaction was quenched by equal volume of methanol, and the filtered solution was analyzed by analytical method described above.
# as §2, with “Caprolactam, valerolactam and butyrolactam, AMP, ADP and ATP were purchased as standards from Sigma-Aldrich.” left out
# [5] = substrate: N=C(N)NCCCCCC(=O)O; experiment: ATP-PPi release assay for ORF27 (substrate range, steady state parameters); assay type: biochemical, Streptomyces aizunensis; conditions: other: 100 mM HEPES, pH 7.5 at 25° C.
# Protocol: (§3) The substrate range of ORF27 was determined by ATP-PPi release assays as previously described (12). Without prior knowledge about the reaction pathways, the ATP-PPi assay served a semi-quantitative method to compare substrate induced acceleration of ATP consumption. For kinetic investigation of ORF27 activity with different substrates, the inorganic pyrophosphate released by enzymatic reaction was measured continuously using the EnzChek Pyrophosphate Assay Kit (Invitrogen). A typical assay contained in a total volume of 150 μL: 5 μM of ORF27, 0-20 mM substrates, 1 mM ATP, 1 mM CoASH and 1 mM Mg(Cl)2 in 100 mM HEPES, pH 7.5. 2-amino-6-mercapto-7-methylpurine ribonucleoside (MESG) substrate, purine nucleoside phosphorylase and inorganic pyrophosphatase were added according to the protocol. Reactions were initiated by the addition of ATP and monitored at 360 nm with SpectraMax M2 (Molecular Devices, Sunnyvale, Calif.). Initial velocities were calculated using the standard curve for inorganic pyrophosphate. For each concentration, control reactions were carried out without enzyme or without ATP. The rates of PPi release were converted to observed rates, and the Michaelis-Menten kinetic parameters were obtained.
# as §1
# (§4) The sensitivity of the ATP-PPi release assay (5 μM Pi) allowed the initial velocity to be determined within the first 2 min of reaction incubation. During this time period, ATP hydrolysis activity by ORF27 was not observed according to the ATP-PPi assay (ATP hydrolysis was observed over longer period of time though, see discussion below).
# [6] = substrate: CCCCC(=O)O; experiment: as above; assay type: biochemical, Streptomyces aizunensis; conditions: other: 100 mM HEPES, pH 7.5 at 25° C.
# Protocol: as §3, §1, §4
# [7] = substrate: CCC(C)CCC(=O)O; experiment: as above; assay type: biochemical, Streptomyces aizunensis; conditions: other: 100 mM HEPES, pH 7.5 at 25° C.
# Protocol: as §3, §1, §4
# [8] = substrate: CCC(N)C(=O)O; experiment: as above; assay type: biochemical, Streptomyces aizunensis; conditions: other: 100 mM HEPES, pH 7.5 at 25° C.
# Protocol: as §3, §1, §4
# [9] = substrate: NCCCCCC(=O)O; experiment: as above; assay type: biochemical, Streptomyces aizunensis; conditions: other: 100 mM HEPES, pH 7.5 at 25° C.
# Protocol: as §3, §1, §4
# [10] = substrate: N=C(N)NCCCC(=O)O; experiment: as above; assay type: biochemical, Streptomyces aizunensis; conditions: other: 100 mM HEPES, pH 7.5 at 25° C.
# Protocol: as §3, §1, §4
# [11] = substrate: NCCCC(=O)O; experiment: as above; assay type: biochemical, Streptomyces aizunensis; conditions: other: 100 mM HEPES, pH 7.5 at 25° C.
# Protocol: as §3, §1, §4
molecule,measurement,setting,value
N=C(N)NCCCCCC(=O)O [6-Guanidinohexanoic acid],solubility,[1],low solubility
Nc1ncnc2c1ncn2[C@@H]1O[C@H](COP(=O)(O)OP(=O)(O)O)[C@@H](O)[C@H]1O [ADP],rate of lactam formation with ADP relative to the similar reaction with ATP,ORF27 [2],20-50%
"O=C(O)CCCCC(=O)O [adipic acid, Adipic acid]",enzyme activity of ORF27 on the substrate,ORF27 [3],not observed
"O=C(O)CCCC(=O)O [glutaric acid, Glutaric acid]",enzyme activity of ORF27 on the substrate,ORF27 [3],not observed
ORF27 (Streptomyces aizunensis) (protein) MRPMTAKIFAVDSVRPIDEFEQDALRVADVIRERGVCLGDRVMLKAGNSASYVCVLYALMHIGASIVLVDQQEHKEETRRIALRTGVKVTFVDDETPIDQDADPIHLYELMVATQNRPPMDSALSFDAWGELSDGLIMWTSGSTGSPKGVVKSGGKFLANLRRNAHQVGHRPDDVLMPLLPFAHQYGLSMVLIAWLTRCSLVIAPYRRLDRALRMARDSGTTVIDATPSSYRSILGLVTRKPALRAHLAGTRMFCVGAAPLDAPLVESYVQEFGLPLLDSYGSTELNNIAFATLDNPVSCGRAMEGIGLRIVDEDGREVAAGQPGEIEVDTPDALEGQIAEDGSIIPAPTGWQRTGDLGHLDADGNLYVLGRKFAVHRMGYTLYPELIERKVAAEGCPTRIVPLPDELRGSQLVFFVEDDEQRDAGYWRERLCGLLPAFEQPNKVVVLEQFPLNRNGKPDKKELTRMAAE,pH below which the enzyme precipitated and became inactive,[4],below 6.0
same,pH optimum,[4],8.0
same,Km,[5],110 µM
same,kcat,[5],0.0055 s⁻¹
same,kcat/Km,[5],49 M⁻¹ s⁻¹
same,Km,[6],52200 µM
same,kcat,[6],0.0283 s⁻¹
same,kcat/Km,[6],0.543 M⁻¹ s⁻¹
same,Km,[7],12100 µM
same,kcat,[7],0.0217 s⁻¹
same,kcat/Km,[7],1.8 M⁻¹ s⁻¹
same,Km,[8],1630 µM
same,kcat,[8],0.0006 s⁻¹
same,kcat/Km,[8],0.37 M⁻¹ s⁻¹
same,Km,[9],56 µM
same,kcat,[9],0.00283 s⁻¹
same,kcat/Km,[9],49.4 M⁻¹ s⁻¹
same,Km,[10],13 µM
same,kcat,[10],0.002 s⁻¹
same,kcat/Km,[10],157 M⁻¹ s⁻¹
same,Km,[11],17200 µM
same,kcat,[11],0.00583 s⁻¹
same,kcat/Km,[11],0.338 M⁻¹ s⁻¹
